Source: publication PMC2860377

Test system: CSCC[C@H](N)C(=O)Nc1ccc2c(C)cc(=O)oc2c1
Assay: purified protein
Settings: Fe(II) form, 10 μM FeCl2

Substance: MtMetAP1a (Mycobacterium tuberculosis H37Rv)
- Km: 161 µM
